In article PMC5339707, “ACCORD: an assessment tool to determine the orientation of homodimeric coiled-coils” (Scientific Reports, 2017):
“And” between values parts separate entries of the source, which are not always exact repeats. Identical values can stand only once. Like-named read-outs stand apart in the source and are kept apart here.

What was measured:
[1] = target: His6-SspB-TPM1 (1-98) fusion protein (E. coli | G. gallus) (UniProt P0AFZ3); assay: SEC-MALS; self-association of His6-SspB-CCD fusion proteins (ACCORD); Superdex 200 10/300 GL, 50 mM Tris pH 8.0, 0.5 mM TCEP, 200 mM NaCl; sample 3-5 mg/ml, 0.5 ml
[2] = target: His6-SspB-Mfn1 (660-735) fusion protein (E. coli | M. musculus) (UniProt P0AFZ3); assay: as above
[3] = target: the molecule itself; assay: crystal structure; MBP-MDV1 fusion protein, hanging drop, 295 K, 100 mM sodium acetate pH 4.5, 25% PEG 3350, 100 mM CaCl2, 1.3-1.7 M sodium formate; molecular replacement
[4] = target: the molecule itself; assay: SEC-MALS; self-association of His6-SspB-CCD fusion proteins (ACCORD); Superdex 200 10/300 GL, 50 mM Tris pH 8.0, 0.5 mM TCEP, 200 mM NaCl; sample 3-5 mg/ml, 0.5 ml
[5] = target: the molecule itself; assay: SAXS; MBP fusion proteins in 50 mM Tris pH 8.0, 0.5 mM TCEP, 100 mM NaCl; MBP-NDP52 2.6 mg/ml, MBP-MDV1 9.8 mg/ml; ab initio molecular envelope
[6] = target: the molecule itself; assay: SEC-MALS; self-association of His6-SspB-CCD fusion proteins (ACCORD); Superdex 200 10/300 GL, 50 mM Tris pH 8.0, 0.5 mM TCEP, 200 mM NaCl; sample 3-5 mg/ml, 0.5 ml; remark: listed apart in the source

With “His6-SspB-TPM1 (1-98) fusion protein (from UniProt P0AFZ3 1-165; P04268 1-98)” the stoichiometry N [1] was 2.

Work on “His6-SspB-Mfn1 (660-735) fusion protein (from UniProt P0AFZ3 1-165; Q811U4 660-735)” yielded a stoichiometry N [2] of 4.

B1: MBP-MDV1 (231-300) fusion protein (domain or fragment, S. cerevisiae, UniProt P47025 231-300, looked up)
chain: QTLVNSLEFLNIQKNSTLSEIRDIEVEVENLRQKKEKLLGKIANIEQNQLLLEDNLKQIDDRLDFLEEYG
notes: Mitochondrial division protein 1 (MDV1), S. cerevisiae, coiled-coil domain, residues 231-300; Modified pMAL vector; the whole chain is in PDB 5JST; source: E. coli BL21(DE3), purified (amylose resin, Q-FF, Superdex 200)
B1: binds [3].

B2: His6-SspB-ROCK1 (535-709) fusion protein (other, E. coli | H. sapiens, UniProt P0AFZ3 1-165, looked up)
chain: MDLSQLTPRRPYLLRAFYEWLLDNQLTPHLVVDVTLPGVQVPMEYARDGQIVLNIAPRAVGNLELANDEVRFNARFGGIPRQVSVPLAAVLAIYARENGAGTMFEPEAAYDEDTSIMNDEEASADNETVMSVIDGDKPDHDDDTHPDDEPPQPPRGGRPALRVVKLANEKLSQLQKQLEEANDLLRTESDTAVRLRKSHTEMSKSISQLESLNRELQERNRILENSKSQTDKDYYQLQAILEAERRDRGHDSEMIGDLQARITSLQEEVKHLKHNLEKVEGERKEAQDMLNHSEKEKNNLEIDLNYKLKSLQQRLEQEVNEHKVTKARLTDKHQSIEEAK
notes: Stringent starvation protein B (SspB), E. coli, full length, residues 1-165 (M1-K165), amplified from genomic DNA; Rho-associated coiled-coil containing protein kinase 1 (ROCK1), human, coiled-coil domain, residues 535-709 (L535-K709); CCD ligated behind SspB in the His6-SspB vector (BamHI at the 5' end); vector holds TEV and thrombin cleavage sites; source: E. coli BL21(DE3), purified (HisTrap, …)
With B2 the “stoichiometry N” value [4] was 2.

B3: His6-SspB-APC (2-55) fusion protein (other, E. coli | H. sapiens, UniProt P0AFZ3 1-165, looked up)
chain: MDLSQLTPRRPYLLRAFYEWLLDNQLTPHLVVDVTLPGVQVPMEYARDGQIVLNIAPRAVGNLELANDEVRFNARFGGIPRQVSVPLAAVLAIYARENGAGTMFEPEAAYDEDTSIMNDEEASADNETVMSVIDGDKPDHDDDTHPDDEPPQPPRGGRPALRVVKAAASYDQLLKQVEALKMENSNLRQELEDNSNHLTKLETEASNMKEVLKQLQGSI
notes: Stringent starvation protein B (SspB), E. coli, full length, residues 1-165 (M1-K165), amplified from genomic DNA; Adenomatous polyposis coli protein (APC), human, coiled-coil domain, residues 2-55 (A2-I55); CCD ligated behind SspB in the His6-SspB vector (BamHI at the 5' end); vector holds TEV and thrombin cleavage sites; source: E. coli BL21(DE3), purified (HisTrap, Superdex 200); not shown: …
In the case of B3, the “stoichiometry N” value [4] is reported as 2.

B4: His6-SspB-NDP52 (141-334) fusion protein (other, E. coli | H. sapiens, UniProt P0AFZ3 1-165, looked up)
chain: MDLSQLTPRRPYLLRAFYEWLLDNQLTPHLVVDVTLPGVQVPMEYARDGQIVLNIAPRAVGNLELANDEVRFNARFGGIPRQVSVPLAAVLAIYARENGAGTMFEPEAAYDEDTSIMNDEEASADNETVMSVIDGDKPDHDDDTHPDDEPPQPPRGGRPALRVVKEVEEIEQHNKELCKENQELKDSCISLQKQNSDMQAELQKKQEELETLQSINKKLELKVKEQKDYWETELLQLKEQNQKMSSENEKMGIRVDQLQAQLSTQEKEMEKLVQGDQDKTEQLEQLKKENDHLFLSLTEQRKDQKKLEQTVEQMKQNETTAMKKQQELMDENFDLSKRLSENEIICNALQRQKERLEGE
notes: Stringent starvation protein B (SspB), E. coli, full length, residues 1-165 (M1-K165), amplified from genomic DNA; source: E. coli BL21(DE3), purified (HisTrap, Superdex 200); not shown: His6, N-terminal, kept
B4 was tested, and the “stoichiometry N” value [4] was 2.

B5: MBP-NDP52 (197-270) fusion protein (domain or fragment, H. sapiens, UniProt Q13137 197-270, looked up)
chain: KVKEQKDYWETELLQLKEQNQKMSSENEKMGIRVDQLQAQLSTQEKEMEKLVQGDQDKTEQLEQLKKENDHLFL
notes: Modified pMAL vector; source: E. coli BL21(DE3), purified (amylose resin, Q-FF, Superdex 200)
B5: binds [5].

B6: His6-SspB-Ndel1 (8-99) fusion protein (other, E. coli | R. norvegicus, UniProt P0AFZ3 1-165, looked up)
chain: MDLSQLTPRRPYLLRAFYEWLLDNQLTPHLVVDVTLPGVQVPMEYARDGQIVLNIAPRAVGNLELANDEVRFNARFGGIPRQVSVPLAAVLAIYARENGAGTMFEPEAAYDEDTSIMNDEEASADNETVMSVIDGDKPDHDDDTHPDDEPPQPPRGGRPALRVVKDFSSLKEETAYWKELSLKYKQSFQEARDELVEFQEGSRELEAELEAQLVQAEQRNRDLQADNQRLKYEVEALKEKLEHQYAQSYKQVSVLED
notes: Stringent starvation protein B (SspB), E. coli, full length, residues 1-165 (M1-K165), amplified from genomic DNA; Major peak a dimer; source: E. coli BL21(DE3), purified (HisTrap, Superdex 200); not shown: His6, N-terminal, kept
For B6, the “stoichiometry N” value [4] was 2.

B7: His6-SspB-LRRFIP1 (162-249) fusion protein (other, E. coli | H. sapiens, UniProt P0AFZ3 1-165, looked up)
chain: MDLSQLTPRRPYLLRAFYEWLLDNQLTPHLVVDVTLPGVQVPMEYARDGQIVLNIAPRAVGNLELANDEVRFNARFGGIPRQVSVPLAAVLAIYARENGAGTMFEPEAAYDEDTSIMNDEEASADNETVMSVIDGDKPDHDDDTHPDDEPPQPPRGGRPALRVVKDSLAEVEEKYKKAMVSNAQLDNEKTNFMYQVDTLKDMLLELEEQLAESRRQYEEKNKEFEREKHAHSILQFQFAEVKEALKQREEMLE
notes: Stringent starvation protein B (SspB), E. coli, full length, residues 1-165 (M1-K165), amplified from genomic DNA; CCD ligated behind SspB in the His6-SspB vector (BamHI at the 5' end); vector holds TEV and thrombin cleavage sites; source: E. coli BL21(DE3), purified (HisTrap, Superdex 200); not shown: His6, N-terminal, kept
B7 was tested, and the “stoichiometry N” value [4] was 2.

B8: His6-SspB-TRIM25 (194-356) fusion protein (other, E. coli | H. sapiens, UniProt P0AFZ3 1-165, looked up)
chain: MDLSQLTPRRPYLLRAFYEWLLDNQLTPHLVVDVTLPGVQVPMEYARDGQIVLNIAPRAVGNLELANDEVRFNARFGGIPRQVSVPLAAVLAIYARENGAGTMFEPEAAYDEDTSIMNDEEASADNETVMSVIDGDKPDHDDDTHPDDEPPQPPRGGRPALRVVKASADLEATLRHKLTVMYSQINGASRALDDVRNRQQDVRMTANRKVEQLQQEYTEMKALLDASETTSTRKIKEEEKRVNSKFDTIYQILLKKKSEIQTLKEEIEQSLTKRDEFEFLEKASKLRGISTKPVYIPEVELNHKLIKGIHQSTIDLKNELKQCIGRLQ
notes: as for B4
For B8, the “stoichiometry N” value [4] was 4.

B9: His6-SspB-Atg16 (58-130) fusion protein (other, E. coli | S. cerevisiae, UniProt P0AFZ3 1-165, looked up)
chain: MDLSQLTPRRPYLLRAFYEWLLDNQLTPHLVVDVTLPGVQVPMEYARDGQIVLNIAPRAVGNLELANDEVRFNARFGGIPRQVSVPLAAVLAIYARENGAGTMFEPEAAYDEDTSIMNDEEASADNETVMSVIDGDKPDHDDDTHPDDEPPQPPRGGRPALRVVKVSHDDALLNTLAILQKELKSKEQEIRRLKEVIALKNKNTERLNDELISGTIENNVLQQKLSDLKKEHSQLVAR
notes: Stringent starvation protein B (SspB), E. coli, full length, residues 1-165 (M1-K165), amplified from genomic DNA; Autophagy protein 16 (Atg16), S. cerevisiae, coiled-coil domain, residues 58-130 (V58-R130); source: E. coli BL21(DE3), purified (HisTrap, Superdex 200); not shown: His6, N-terminal, kept
With B9 the “stoichiometry N” value [4] was 2.

B10: His6-SspB-MDV1 (231-300) fusion protein (other, E. coli | S. cerevisiae, UniProt P0AFZ3 1-165, looked up)
chain: MDLSQLTPRRPYLLRAFYEWLLDNQLTPHLVVDVTLPGVQVPMEYARDGQIVLNIAPRAVGNLELANDEVRFNARFGGIPRQVSVPLAAVLAIYARENGAGTMFEPEAAYDEDTSIMNDEEASADNETVMSVIDGDKPDHDDDTHPDDEPPQPPRGGRPALRVVKQTLVNSLEFLNIQKNSTLSEIRDIEVEVENLRQKKEKLLGKIANIEQNQLLLEDNLKQIDDRLDFLEEYG
notes: Stringent starvation protein B (SspB), E. coli, full length, residues 1-165 (M1-K165), amplified from genomic DNA; Mitochondrial division protein 1 (MDV1), S. cerevisiae, coiled-coil domain, residues 231-300 (Q231-G300); Seen as a tetramer (main fraction) and a dimer (significant proportion); source: E. coli BL21(DE3), purified (HisTrap, Superdex 200); not shown: His6, N-terminal, kept
For B10, the “stoichiometry N” value [4] was 4 and 2.

B11: His6-SspB-MYO10 (883-933) fusion protein (other, E. coli | human, UniProt P0AFZ3 1-165, looked up)
chain: MDLSQLTPRRPYLLRAFYEWLLDNQLTPHLVVDVTLPGVQVPMEYARDGQIVLNIAPRAVGNLELANDEVRFNARFGGIPRQVSVPLAAVLAIYARENGAGTMFEPEAAYDEDTSIMNDEEASADNETVMSVIDGDKPDHDDDTHPDDEPPQPPRGGRPALRVVKENKQVEEILRLEKEIEDLQRMKEQQELSLTEASLQKLQERRDQELRRLEEE
notes: Stringent starvation protein B (SspB), E. coli, full length, residues 1-165 (M1-K165), amplified from genomic DNA; also called human MYO10 CC; source: E. coli BL21(DE3), purified (HisTrap, Superdex 200)
B11 was tested, and the “stoichiometry N” value [6] was 2.

B12: His6-SspB-SCOC (78-159) fusion protein (other, E. coli | H. sapiens, UniProt P0AFZ3 1-165, looked up)
chain: MDLSQLTPRRPYLLRAFYEWLLDNQLTPHLVVDVTLPGVQVPMEYARDGQIVLNIAPRAVGNLELANDEVRFNARFGGIPRQVSVPLAAVLAIYARENGAGTMFEPEAAYDEDTSIMNDEEASADNETVMSVIDGDKPDHDDDTHPDDEPPQPPRGGRPALRVVKMMNADMDAVDAENQVELEEKTRLINQVLELQHTLEDLSARVDAVKEENLKLKSENQVLGQYIENLMSASSVFQTTDTKSKRK
notes: Stringent starvation protein B (SspB), E. coli, full length, residues 1-165 (M1-K165), amplified from genomic DNA; Short coiled-coil protein (SCOC), human, coiled-coil domain, residues 78-159 (M78-K159); CCD ligated behind SspB in the His6-SspB vector (BamHI at the 5' end); vector holds TEV and thrombin cleavage sites; source: E. coli BL21(DE3), purified (HisTrap, Superdex 200); not shown: His6, …
B12 was tested, and the “stoichiometry N” value [4] was 2.
